Experimental data reported in publication PMC9120032, “SARS-CoV-2 ORF6 disrupts nucleocytoplasmic trafficking to advance viral replication” (Communications Biology, 2022).

T1: bacterially purified recombinant STAT1 protein (human, UniProt P42224 1-750)
T1 construct: human STAT1, full length, subcloned into pGEX6P2 from the pcDNA5/FRT/3xFLAG expression vector; The methods tell in general that GST tags were cleaved with PreScission or thrombin; also called STAT1 recombinant protein; Flag-h-STAT1; source: bacterially expressed recombinant protein, purified; not shown: Flag, N-terminal, kept
T1 sequence: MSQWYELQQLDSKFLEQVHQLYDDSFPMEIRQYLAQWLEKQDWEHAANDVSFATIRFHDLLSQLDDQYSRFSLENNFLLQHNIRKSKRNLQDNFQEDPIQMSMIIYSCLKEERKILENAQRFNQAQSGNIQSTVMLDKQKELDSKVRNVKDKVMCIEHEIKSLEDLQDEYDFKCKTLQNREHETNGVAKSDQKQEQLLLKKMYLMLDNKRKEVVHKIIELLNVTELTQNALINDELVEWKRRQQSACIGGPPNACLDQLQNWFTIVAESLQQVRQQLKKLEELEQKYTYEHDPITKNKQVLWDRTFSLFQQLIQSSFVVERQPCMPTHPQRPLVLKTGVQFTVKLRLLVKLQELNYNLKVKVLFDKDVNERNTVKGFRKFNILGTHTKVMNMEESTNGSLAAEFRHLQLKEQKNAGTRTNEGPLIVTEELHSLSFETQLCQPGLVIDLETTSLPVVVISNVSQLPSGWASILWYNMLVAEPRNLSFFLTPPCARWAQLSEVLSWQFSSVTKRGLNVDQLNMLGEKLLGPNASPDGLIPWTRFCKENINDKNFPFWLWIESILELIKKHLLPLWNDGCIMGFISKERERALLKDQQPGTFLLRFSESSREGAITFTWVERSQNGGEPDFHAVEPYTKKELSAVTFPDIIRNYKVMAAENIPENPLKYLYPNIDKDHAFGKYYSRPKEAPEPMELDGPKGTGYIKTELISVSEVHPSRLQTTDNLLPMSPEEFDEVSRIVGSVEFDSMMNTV

B1: GST-GFP fused with the C-terminal peptide of ORF6 wild type (49-61 amino acids) (peptide)
chain: YSQLDEEQPMEID
notes: SARS-CoV-2 ORF6, the 13 amino acids 49-61 of the C-terminal region (M0); also called GST-M0-GFP; M0; not shown: GST, N-terminal, kept; GFP, C-terminal, kept
B2: GST-GFP-fused ORF6 full-length protein (natural protein)
chain: MFHLVDFQVTIAEILLIIMRTFKVSIWNLDYIINLIIKNLSKSLTENKYSQLDEEQPMEID
notes: Held on glutathione Sepharose beads by its GST; also called GST-GFP-ORF6; GST-GFP-ORF6 wild type (WT); not shown: GST, N-terminal, kept; GFP, N-terminal, kept

Columns and labels:
[1] = target: T1, bacterially purified recombinant STAT1 …; assay: pull-down; GST fusion proteins immobilised on glutathione-Sepharose 4B beads; recombinant proteins (100 pmol each) in 200 μL transport buffer (20 mM HEPES pH 7.3, 110 mM potassium acetate, 2 mM magnesium acetate, 1 mM EGTA, 1 mM DTT) with 0.1% Triton X-100, 4 °C, 1 h; five washes; western blot; settings: both partners purified
[2] = target: T2, Flag-importin α1 recombinant protein (human, UniProt P52292 1-529); assay: as above; settings: both partners purified
T2 construct: human importin α1 (KPNA2); also called Flag-Impα1; FLAG-h-importin α1; source: bacterially expressed recombinant protein, purified; not shown: FLAG, N-terminal, kept

| Binder | binding result [1] | binding result [2] |
| --- | --- | --- |
| B1 | binds |  |
| B2 |  | binds |
